# From US20200199241A1 (Chugai, published 2020)
# Residue numbers refer to the chain shown, from its start. In names and notes the source's numbering stands.
# T1: human FcγRIIa(R) (human, UniProt P12318 36-217)
# T1 construct: also called FcgRIIaR; hFcgRIIa(R)
# T1 chain: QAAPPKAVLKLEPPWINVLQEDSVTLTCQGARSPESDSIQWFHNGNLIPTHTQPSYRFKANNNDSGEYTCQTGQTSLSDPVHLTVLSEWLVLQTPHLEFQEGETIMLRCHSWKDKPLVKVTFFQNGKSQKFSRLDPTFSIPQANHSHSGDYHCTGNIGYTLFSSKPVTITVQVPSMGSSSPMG
# T2: human FcγRIIa(H) (human, UniProt P12318 36-217)
# T2 construct: also called FcgRIIaH; hFcgRIIa(H)
# T2 sequence: T1 chain with R133H
# T3: human FcγRIIb (human, UniProt P31994 43-217, limits assumed)
# T3 construct: also called FcgRIIb; hFcgRIIb
# T3 sequence: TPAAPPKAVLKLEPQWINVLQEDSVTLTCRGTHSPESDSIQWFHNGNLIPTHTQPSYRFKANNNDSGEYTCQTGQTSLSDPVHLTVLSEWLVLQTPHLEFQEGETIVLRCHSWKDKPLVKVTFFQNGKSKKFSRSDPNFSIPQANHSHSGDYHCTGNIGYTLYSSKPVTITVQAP
# B1: GpH7-B3 N325K/GpL16-k0 (antibody, human IgG1)
# heavy: not shown
# light: DIVMTQSPLSLPVTPGEPASISCQASESLVHSNRNTYLHWYLQKPGQSPQLLIYKVSNRFSGVPDRFSGSGSGTDFTLKISRVEAEDVGVYYCSQNTHVPPTFGQGTKVEIE
# notes: B3 variant; copies: 2 + 2
# B2: GpH7-B3 I332K/GpL16-k0 (antibody, human IgG1)
# heavy: not shown
# light: B1 light
# notes: B3 variant; copies: 2 + 2
# B3: GpH7-B3 P271F/GpL16-k0 (antibody, human IgG1)
# heavy: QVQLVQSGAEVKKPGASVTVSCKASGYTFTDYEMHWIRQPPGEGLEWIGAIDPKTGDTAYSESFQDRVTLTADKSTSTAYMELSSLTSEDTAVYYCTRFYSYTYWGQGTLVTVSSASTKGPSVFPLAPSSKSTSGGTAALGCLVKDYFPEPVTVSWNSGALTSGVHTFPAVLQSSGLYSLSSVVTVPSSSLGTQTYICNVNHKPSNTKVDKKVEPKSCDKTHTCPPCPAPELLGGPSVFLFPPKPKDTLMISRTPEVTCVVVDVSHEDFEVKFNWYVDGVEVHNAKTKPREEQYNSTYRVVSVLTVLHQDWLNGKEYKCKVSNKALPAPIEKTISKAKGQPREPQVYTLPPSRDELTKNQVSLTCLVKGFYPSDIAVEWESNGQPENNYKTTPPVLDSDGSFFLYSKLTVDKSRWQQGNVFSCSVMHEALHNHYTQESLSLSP
# light: B1 light
# notes: B3 variant; copies: 2 + 2
# B4: GpH7-B3 L328P/GpL16-k0 (antibody, human IgG1)
# heavy: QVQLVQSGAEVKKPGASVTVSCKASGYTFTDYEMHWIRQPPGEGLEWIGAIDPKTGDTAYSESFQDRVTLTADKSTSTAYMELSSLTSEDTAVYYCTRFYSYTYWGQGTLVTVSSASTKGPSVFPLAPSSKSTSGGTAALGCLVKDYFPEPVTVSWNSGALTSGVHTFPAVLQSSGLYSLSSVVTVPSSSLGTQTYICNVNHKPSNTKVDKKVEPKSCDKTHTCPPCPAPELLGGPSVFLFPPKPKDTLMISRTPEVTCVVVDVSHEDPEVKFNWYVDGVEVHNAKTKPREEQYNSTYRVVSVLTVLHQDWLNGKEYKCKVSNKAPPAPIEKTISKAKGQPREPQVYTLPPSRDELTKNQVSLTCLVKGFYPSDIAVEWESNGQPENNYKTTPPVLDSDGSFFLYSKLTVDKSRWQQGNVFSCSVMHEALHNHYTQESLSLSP
# light: B1 light
# notes: B3 variant; copies: 2 + 2
# B5: GpH7-B3 L328H/GpL16-k0 (antibody, human IgG1)
# heavy: not shown
# light: B1 light
# notes: B3 variant; copies: 2 + 2
# B6: GpH7-B3 D270N/GpL16-k0 (antibody, human IgG1)
# heavy: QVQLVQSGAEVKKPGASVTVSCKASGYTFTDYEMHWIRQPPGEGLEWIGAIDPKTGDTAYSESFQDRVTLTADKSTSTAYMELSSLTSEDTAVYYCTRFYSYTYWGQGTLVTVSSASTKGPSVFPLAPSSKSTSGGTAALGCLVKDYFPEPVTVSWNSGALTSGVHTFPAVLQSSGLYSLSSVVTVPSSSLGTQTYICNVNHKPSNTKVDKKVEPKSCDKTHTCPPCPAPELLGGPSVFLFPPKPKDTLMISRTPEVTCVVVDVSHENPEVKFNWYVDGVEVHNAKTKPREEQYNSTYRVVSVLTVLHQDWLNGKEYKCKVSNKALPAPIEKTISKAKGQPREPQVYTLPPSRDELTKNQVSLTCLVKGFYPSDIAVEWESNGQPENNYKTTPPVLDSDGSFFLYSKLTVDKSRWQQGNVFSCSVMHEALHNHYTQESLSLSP
# light: B1 light
# notes: B3 variant; copies: 2 + 2
# B7: GpH7-B3 L328K/GpL16-k0 (antibody, human IgG1)
# heavy: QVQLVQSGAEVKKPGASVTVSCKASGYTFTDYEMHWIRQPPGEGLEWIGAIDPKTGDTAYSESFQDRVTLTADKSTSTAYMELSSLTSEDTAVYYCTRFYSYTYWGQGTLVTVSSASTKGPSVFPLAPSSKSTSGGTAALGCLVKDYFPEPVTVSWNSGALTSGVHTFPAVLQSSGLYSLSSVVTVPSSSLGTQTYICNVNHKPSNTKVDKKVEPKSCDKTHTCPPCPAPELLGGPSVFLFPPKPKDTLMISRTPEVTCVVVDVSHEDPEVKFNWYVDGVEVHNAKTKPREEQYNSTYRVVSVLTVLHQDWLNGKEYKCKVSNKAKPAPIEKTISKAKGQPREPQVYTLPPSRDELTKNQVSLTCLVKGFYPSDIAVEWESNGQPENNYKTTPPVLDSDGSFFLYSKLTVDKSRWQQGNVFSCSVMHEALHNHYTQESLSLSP
# light: B1 light
# notes: B3 variant; copies: 2 + 2
# B8: GpH7-B3 I332P/GpL16-k0 (antibody, human IgG1)
# heavy: not shown
# light: B1 light
# notes: B3 variant; copies: 2 + 2
# B9: GpH7-B3 N325P/GpL16-k0 (antibody, human IgG1)
# heavy: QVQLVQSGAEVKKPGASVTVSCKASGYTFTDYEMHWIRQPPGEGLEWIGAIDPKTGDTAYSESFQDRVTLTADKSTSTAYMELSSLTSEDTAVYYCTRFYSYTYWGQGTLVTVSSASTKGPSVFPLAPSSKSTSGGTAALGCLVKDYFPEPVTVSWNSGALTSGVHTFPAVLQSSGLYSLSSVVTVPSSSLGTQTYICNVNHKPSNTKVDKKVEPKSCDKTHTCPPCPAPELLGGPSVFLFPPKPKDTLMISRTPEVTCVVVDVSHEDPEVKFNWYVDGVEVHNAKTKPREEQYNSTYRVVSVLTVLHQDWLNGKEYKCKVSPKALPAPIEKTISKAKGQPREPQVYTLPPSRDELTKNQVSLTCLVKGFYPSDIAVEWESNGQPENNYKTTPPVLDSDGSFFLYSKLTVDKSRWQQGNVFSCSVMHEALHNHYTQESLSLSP
# light: B1 light
# notes: B3 variant; copies: 2 + 2
# B10: GpH7-B3 N325T/GpL16-k0 (antibody, human IgG1)
# heavy: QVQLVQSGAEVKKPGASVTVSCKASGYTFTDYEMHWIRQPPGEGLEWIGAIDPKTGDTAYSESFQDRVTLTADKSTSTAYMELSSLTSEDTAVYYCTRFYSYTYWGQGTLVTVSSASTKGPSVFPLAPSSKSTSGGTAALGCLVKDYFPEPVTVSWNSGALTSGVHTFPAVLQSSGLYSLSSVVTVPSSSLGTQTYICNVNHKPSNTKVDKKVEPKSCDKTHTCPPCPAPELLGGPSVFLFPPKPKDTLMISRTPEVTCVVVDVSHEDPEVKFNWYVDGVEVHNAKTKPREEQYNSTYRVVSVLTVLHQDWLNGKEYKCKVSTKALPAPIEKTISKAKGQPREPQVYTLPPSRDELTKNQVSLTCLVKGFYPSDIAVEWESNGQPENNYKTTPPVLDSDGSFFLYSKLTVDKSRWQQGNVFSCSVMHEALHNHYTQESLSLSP
# light: B1 light
# notes: B3 variant; copies: 2 + 2
# B11: GpH7-B3 P271R/GpL16-k0 (antibody, human IgG1)
# heavy: not shown
# light: B1 light
# notes: B3 variant; copies: 2 + 2
# B12: GpH7-B3 N325V/GpL16-k0 (antibody, human IgG1)
# heavy: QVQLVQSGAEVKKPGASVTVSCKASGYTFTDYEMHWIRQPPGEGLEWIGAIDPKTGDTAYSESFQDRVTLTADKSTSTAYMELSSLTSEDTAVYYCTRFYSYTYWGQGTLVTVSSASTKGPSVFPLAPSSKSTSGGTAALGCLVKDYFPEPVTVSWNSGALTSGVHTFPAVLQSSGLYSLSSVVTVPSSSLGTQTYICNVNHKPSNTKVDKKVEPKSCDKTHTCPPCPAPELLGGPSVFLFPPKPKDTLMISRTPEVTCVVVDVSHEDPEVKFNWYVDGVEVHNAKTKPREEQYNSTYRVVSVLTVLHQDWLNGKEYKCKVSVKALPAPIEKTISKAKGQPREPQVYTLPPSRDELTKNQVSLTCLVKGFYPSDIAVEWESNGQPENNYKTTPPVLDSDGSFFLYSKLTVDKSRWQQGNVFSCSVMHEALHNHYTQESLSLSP
# light: B1 light
# notes: B3 variant; copies: 2 + 2
# B13: GpH7-B3 N325H/GpL16-k0 (antibody, human IgG1)
# heavy: not shown
# light: B1 light
# notes: B3 variant; copies: 2 + 2
# B14: GpH7-B3 P271H/GpL16-k0 (antibody, human IgG1)
# heavy: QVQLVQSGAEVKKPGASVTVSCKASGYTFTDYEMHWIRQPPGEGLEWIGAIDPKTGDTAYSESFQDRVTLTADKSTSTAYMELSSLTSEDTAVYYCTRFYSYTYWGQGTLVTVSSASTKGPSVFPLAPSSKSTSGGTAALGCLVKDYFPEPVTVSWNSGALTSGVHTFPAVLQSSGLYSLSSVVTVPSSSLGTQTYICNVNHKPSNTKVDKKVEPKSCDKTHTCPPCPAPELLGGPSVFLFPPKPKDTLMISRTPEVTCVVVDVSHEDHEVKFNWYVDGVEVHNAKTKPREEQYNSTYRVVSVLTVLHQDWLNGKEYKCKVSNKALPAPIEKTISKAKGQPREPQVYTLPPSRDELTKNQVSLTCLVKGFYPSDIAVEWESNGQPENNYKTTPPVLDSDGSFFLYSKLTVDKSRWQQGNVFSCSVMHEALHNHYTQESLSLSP
# light: B1 light
# notes: B3 variant; copies: 2 + 2
# B15: GpH7-B3 D270V/GpL16-k0 (antibody, human IgG1)
# heavy: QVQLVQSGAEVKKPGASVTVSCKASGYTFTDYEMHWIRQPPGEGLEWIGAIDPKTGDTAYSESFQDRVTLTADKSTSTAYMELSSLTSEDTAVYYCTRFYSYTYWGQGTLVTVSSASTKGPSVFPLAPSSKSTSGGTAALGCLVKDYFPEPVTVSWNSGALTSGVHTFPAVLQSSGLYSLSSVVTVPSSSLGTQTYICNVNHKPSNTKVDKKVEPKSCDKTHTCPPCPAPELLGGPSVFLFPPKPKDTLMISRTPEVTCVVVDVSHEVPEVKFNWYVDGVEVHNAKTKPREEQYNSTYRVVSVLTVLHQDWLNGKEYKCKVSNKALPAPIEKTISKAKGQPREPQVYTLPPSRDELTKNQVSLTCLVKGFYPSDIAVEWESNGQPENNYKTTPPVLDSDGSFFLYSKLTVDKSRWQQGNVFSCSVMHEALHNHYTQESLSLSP
# light: B1 light
# notes: B3 variant; copies: 2 + 2
# B16: GpH7-B3 N325W/GpL16-k0 (antibody, human IgG1)
# heavy: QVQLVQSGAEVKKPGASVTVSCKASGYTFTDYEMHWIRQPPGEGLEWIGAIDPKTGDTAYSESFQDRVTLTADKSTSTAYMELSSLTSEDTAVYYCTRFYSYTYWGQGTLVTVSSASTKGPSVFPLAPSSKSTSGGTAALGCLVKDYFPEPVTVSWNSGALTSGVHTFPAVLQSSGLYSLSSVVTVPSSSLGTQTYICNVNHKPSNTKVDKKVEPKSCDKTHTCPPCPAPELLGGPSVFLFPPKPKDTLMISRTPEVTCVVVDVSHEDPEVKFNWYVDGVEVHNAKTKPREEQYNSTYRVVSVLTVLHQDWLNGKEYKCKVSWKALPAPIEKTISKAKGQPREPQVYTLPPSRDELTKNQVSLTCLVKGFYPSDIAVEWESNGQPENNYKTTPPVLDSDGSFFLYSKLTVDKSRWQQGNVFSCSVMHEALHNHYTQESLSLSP
# light: B1 light
# notes: B3 variant; copies: 2 + 2
# B17: GpH7-B3 N325Y/GpL16-k0 (antibody, human IgG1)
# heavy: not shown
# light: B1 light
# notes: B3 variant; copies: 2 + 2
# Target: T4, human FcγRIa (human, UniProt P12314 16-292, limits assumed)
# T4 construct: also called FcgRIa; hFcgRIa
# Experiment: SPR, captured antibody;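 also: antibody captured on a sensor chip, Fcγ receptor flowed over at 25 °C, receptor binding normalized to the captured antibody amount and expressed relative to the reference antibody ×100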
# T4 sequence (P12314 16-292 limits assumed): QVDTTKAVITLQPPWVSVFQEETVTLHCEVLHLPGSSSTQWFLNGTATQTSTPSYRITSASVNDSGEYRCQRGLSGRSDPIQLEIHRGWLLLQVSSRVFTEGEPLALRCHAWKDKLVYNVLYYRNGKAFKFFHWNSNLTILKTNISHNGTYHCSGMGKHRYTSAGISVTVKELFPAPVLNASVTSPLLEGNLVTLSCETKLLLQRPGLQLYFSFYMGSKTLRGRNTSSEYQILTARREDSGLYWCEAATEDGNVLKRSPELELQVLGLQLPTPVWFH
row,relative binding activity,Binder
1,55 % of GpH7-B3/GpL16-k0,B1
2,77 % of GpH7-B3/GpL16-k0,B2
3,99 % of GpH7-B3/GpL16-k0,B3
4,78 % of GpH7-B3/GpL16-k0,B4
5,95 % of GpH7-B3/GpL16-k0,B5
6,68 % of GpH7-B3/GpL16-k0,B6
7,30 % of GpH7-B3/GpL16-k0,B7
8,100 % of GpH7-B3/GpL16-k0,B8
9,50 % of GpH7-B3/GpL16-k0,B9
10,98 % of GpH7-B3/GpL16-k0,B10
11,100 % of GpH7-B3/GpL16-k0,B11
12,84 % of GpH7-B3/GpL16-k0,B12
13,93 % of GpH7-B3/GpL16-k0,B13
14,98 % of GpH7-B3/GpL16-k0,B14
15,84 % of GpH7-B3/GpL16-k0,B15
16,94 % of GpH7-B3/GpL16-k0,B16
17,92 % of GpH7-B3/GpL16-k0,B17

# Target: T1, human FcγRIIa(R)
# Experiment: SPR, captured antibody;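 also: antibody captured on a sensor chip, Fcγ receptor flowed over at 25 °C, receptor binding normalized to the captured antibody amount and expressed relative to the reference antibody ×100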
row,relative binding activity,Binder
1,0 % of GpH7-B3/GpL16-k0,B1
2,12 % of GpH7-B3/GpL16-k0,B2
3,49 % of GpH7-B3/GpL16-k0,B3
4,15 % of GpH7-B3/GpL16-k0,B4
5,76 % of GpH7-B3/GpL16-k0,B5
6,-1 % of GpH7-B3/GpL16-k0,B6
7,-17 % of GpH7-B3/GpL16-k0,B7
8,34 % of GpH7-B3/GpL16-k0,B8
9,2 % of GpH7-B3/GpL16-k0,B9
10,59 % of GpH7-B3/GpL16-k0,B10
11,89 % of GpH7-B3/GpL16-k0,B11
12,37 % of GpH7-B3/GpL16-k0,B12
13,34 % of GpH7-B3/GpL16-k0,B13
14,58 % of GpH7-B3/GpL16-k0,B14
15,1 % of GpH7-B3/GpL16-k0,B15
16,55 % of GpH7-B3/GpL16-k0,B16
17,42 % of GpH7-B3/GpL16-k0,B17

# Target: T2, human FcγRIIa(H)
# Experiment: SPR, captured antibody;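 also: antibody captured on a sensor chip, Fcγ receptor flowed over at 25 °C, receptor binding normalized to the captured antibody amount and expressed relative to the reference antibody ×100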
row,relative binding activity,Binder
1,0 % of GpH7-B3/GpL16-k0,B1
2,59 % of GpH7-B3/GpL16-k0,B2
3,55 % of GpH7-B3/GpL16-k0,B3
4,8 % of GpH7-B3/GpL16-k0,B4
5,47 % of GpH7-B3/GpL16-k0,B5
6,34 % of GpH7-B3/GpL16-k0,B6
7,-2 % of GpH7-B3/GpL16-k0,B7
8,26 % of GpH7-B3/GpL16-k0,B8
9,1 % of GpH7-B3/GpL16-k0,B9
10,27 % of GpH7-B3/GpL16-k0,B10
11,99 % of GpH7-B3/GpL16-k0,B11
12,9 % of GpH7-B3/GpL16-k0,B12
13,13 % of GpH7-B3/GpL16-k0,B13
14,58 % of GpH7-B3/GpL16-k0,B14
15,37 % of GpH7-B3/GpL16-k0,B15
16,4 % of GpH7-B3/GpL16-k0,B16
17,9 % of GpH7-B3/GpL16-k0,B17

# Target: T3, human FcγRIIb
# Experiment: SPR, captured antibody;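 also: antibody captured on a sensor chip, Fcγ receptor flowed over at 25 °C, receptor binding normalized to the captured antibody amount and expressed relative to the reference antibody ×100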
row,relative binding activity,Binder
1,-1 % of GpH7-B3/GpL16-k0,B1
2,27 % of GpH7-B3/GpL16-k0,B2
3,38 % of GpH7-B3/GpL16-k0,B3
4,15 % of GpH7-B3/GpL16-k0,B4
5,82 % of GpH7-B3/GpL16-k0,B5
6,-2 % of GpH7-B3/GpL16-k0,B6
7,-4 % of GpH7-B3/GpL16-k0,B7
8,41 % of GpH7-B3/GpL16-k0,B8
9,3 % of GpH7-B3/GpL16-k0,B9
10,49 % of GpH7-B3/GpL16-k0,B10
11,87 % of GpH7-B3/GpL16-k0,B11
12,35 % of GpH7-B3/GpL16-k0,B12
13,27 % of GpH7-B3/GpL16-k0,B13
14,53 % of GpH7-B3/GpL16-k0,B14
15,3 % of GpH7-B3/GpL16-k0,B15
16,48 % of GpH7-B3/GpL16-k0,B16
17,39 % of GpH7-B3/GpL16-k0,B17
